According to patent US20240025993A1, “CD19 BINDING MOLECULES AND USES THEREOF” (NOVARTIS AG, priority 2020, published 2024):

Assays:
[1] = test system: T cells co-cultured with OCI-LY-19, Karpas422 or Toledo target cells; test: TBM and BBM mediated T cell proliferation (Example 20); assay type: cell-based, human; details: in the presence of OCI-LY-19 and Toledo cells; E:T 1:3, 96 hrs
Description: Briefly, OCI-LY-19, Karpas422, and Toledo target cells stably expressing firefly luciferase were plated in a 96 well plate in T Cell Media (TCM) (RPMI-1640, ThermoFisher Scientific, Cat #11875-085), 10% FBS (Seradigm, Cat #1500-500), 1% L-Glutamine (Thermo Fisher Scientific, Cat #25830-081), 1% Non Essential Amino Acids (Thermo Fisher Scientific, Cat #11140-050),1% Pen/Strep (Thermo Fisher Scientific, Cat #15070063), 1% HEPES (Thermo Fisher Scientific, Cat #15630080), Sodium Pyruvate (Thermo Fisher Scientific, Cat #11360-070), 0.1% Beta-mercaptoethanol (Thermo Fisher Scientific, Cat #21985-023)]. PBMCs previously isolated and cryopreserved from 2 Leukopak donors were thawed and Pan T cells were isolated (as described earlier). Isolated T cells were labelled with 5 μM Cell Trace Violet (CTV) (Thermo Fisher Scientific, Cat #C34557) following the manufacturer's protocol and were co-cultured with target cells at an E:T ratio of 1:3. A dilution series of CD3med TSP1, CD3hi TSP1, CD3hi BSP1, CD3hi TSP1C, and blinatumomab ranging from 2.5 nM-0.0006 nM was added to cells and the plates were incubated in a 5% CO2, 37° C. incubator for 96 hrs. […]

[2] = biological target: human FcγR1A (Homo sapiens, UniProt P12314); test: SPR binding of Fc modified anti-CD3 IgG1 antibodies (Example 34); details: anti-CD3 IgG1 antibody immobilized
Description: Surface plasmon resonance (SPR) experiments were performed to analyze the interaction of human activating receptors FcγR1A, FcγR3A (V158) and human C1q with IgG1 WT and antibody-Fc variants. Binding kinetics and their relative binding affinities were explored. The binding affinity is an important characteristic of an interaction between an antibody and an antigen. The equilibrium dissociation constant (KD) defines how strong the interaction is and therefore how much antibody-antigen complex is formed at equilibrium.
The knowledge of the antibody characteristics is not only essential during selection of the best therapeutic antibody candidate, but also important to understand the in vivo behavior and potentially predict cellular immune responses. […] Binding to human C1q was evaluated. […] SPR measurements were measured on a Biacore T200 (GE-Healthcare Life Sciences) controlled by Biacore T200 control software version 2.0.1. […]
The antibodies were covalently immobilized on a CM5 sensor chip whereas Fc gamma receptors or human C1q served as analytes in solution (FIG. 38). […] Zero concentration samples (blank runs) were measured for both methods to allow double-referencing during data evaluation.
Data were evaluated using the Biacore T200 evaluation software. […] In addition, the maximum response reached during the experiment was monitored. […]

[3] = Differential scanning calorimetry, melting temperature of Fc modified anti-CD3 antibodies (Example 35); assay type: physicochemical; details: DSC, 1 mg/ml in PBS pH 7.4, anti-CD3 IgG1 Fc variants
Description: Calorimetric measurements were carried out on a differential scanning micro calorimeter (Nano DSC, TA instruments). The cell volume was 0.5 ml and the heating rate was 1° C./min. All proteins were used at a concentration of 1 mg/m in PBS (pH 7.4). The molar heat capacity of each protein was estimated by comparison with duplicate samples containing identical buffer from which the protein had been omitted. The partial molar heat capacities and melting curves were analyzed using standard procedure. Thermograms were baseline corrected and concentration normalized.

[4] = Aggregation propensity (% HMW) by analytical SEC of IgG1 anti-CD3 antibody and Fc variants (Example 35); assay type: physicochemical; details: PBS pH 7.4, anti-CD3 antibodies
Description: Size exclusion chromatography measurements were performed to evaluate the aggregation propensity (% HMW) of IgG1 antibody and Fc modified derivatives. The produced and purified anti CD3 antibodies were applied to an analytical size exclusion chromatography column (SEC 200, GE Healthcare), equilibrated with PBS buffer pH 7.4.

[5] = test system: Jurkat NFAT luciferized (JNL) cells with THP-1 cells; test: Anti-CD3 NFAT signalling assay, JNL + THP-1 cells (Example 36); assay type: cell-based, human
Description: Jurkat reporter gene assay (RGA) for the nuclear factor of activated T-cells (NFAT) pathway was performed using Jurkat NFAT luciferized (JNL) cells and THP-1 cells (ATCC, TIB202). THP-1 cells express FcγRI, FcγRII, and FcγRIII. Cells were co-incubated for 6 hours at 37° C., 5% CO2 at a 5:1 effector to tumor ratio with each sample at the various concentrations depicted. An equal volume of ONE-Glo™ reagent (Promega, E6110) was added to the culture volume. Plate was shaken for 2 minutes, then incubated for an additional 8 minutes protected from light. For JNL+ THP+IFNg experiment, THP-1 cells were pre-treated with 100 u/mL IFNg for 48 hours at 37° C., 5% CO2 before co-culture. IFNg stimulation increases FcγRI expression. Luciferase activity was quantitated on the EnVision plate reader (PerkinElmer). Data was analyzed and fit to a 5 parameter-logistic curve using GraphPad Prism.

[6] = THP-1 cells preincubated with IFNg (100 u/mL, 48 hours)

Sequence of human FcγR1A (P12314 16-374): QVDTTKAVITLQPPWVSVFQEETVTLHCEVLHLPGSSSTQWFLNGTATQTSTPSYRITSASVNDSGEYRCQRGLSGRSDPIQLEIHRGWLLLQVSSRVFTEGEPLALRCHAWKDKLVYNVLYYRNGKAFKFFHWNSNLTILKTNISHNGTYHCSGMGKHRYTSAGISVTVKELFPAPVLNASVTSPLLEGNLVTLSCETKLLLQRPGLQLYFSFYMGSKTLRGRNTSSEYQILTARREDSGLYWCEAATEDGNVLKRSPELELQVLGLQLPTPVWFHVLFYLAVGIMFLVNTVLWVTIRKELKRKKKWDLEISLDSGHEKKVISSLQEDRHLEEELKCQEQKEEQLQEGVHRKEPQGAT

Maximum response at 100 nM hFcgammaRIA (RU) [2] [RU] | Substance | T cell proliferation (% proliferated CD3+ T cells) [1] | Melting temperature (Tm) of CH2 domain [3] [°C] | (%) higher molecular weight [4] [%] | NFAT activity (T-cell activation) [5, 6] | NFAT activity (T-cell activation) ([5]; without IFNg, JNL:THP-1 5:1, 6 hours)
 | blinatumomab: bispecific T cell engager, or BiTE, that binds to both CD19 and CD3 but lacks an Fc domain [reference compound] | most potent T cell proliferation |  |  |  | 
15 | LALAGA-IgG1: anti-CD3 IgG1 with L234A/L235A/G237A |  | 70 | 2.9 |  | 
 | DAPA-IgG1: anti-CD3 IgG1 with D265A/P329A; previously described silencing motif [reference compound] |  | 65 | 3.9 | some activity remaining | comparable T-cell activation with the exception of DAPA
18 | LALAPG-IgG1: anti-CD3 IgG1 with L234A/L235A/P329G |  | 70 | 4.2 |  | 
 | LALAPA-IgG1: anti-CD3 IgG1 with L234A/L235A/P329A |  | 70 | 1.8 | some activity remaining | 
